For assay [1], the target named is T1, human αvβ8 integrin on U251 cells (human, UniProt P06756 31-1048). As to the kind of experiment: flow cytometry, Fab binding to fixed U251 cells (ΔMFI, background subtracted); EC50 unit inferred, axis Log10 [FAB] nM.
The target in assay [2] is T1, human αvβ8 integrin on U251 cells. As to the kind of experiment: cell-based or functional assay.
The target is the same in assay [3]. The assay is described as follows: flow cytometry, Fab binding to fixed U251 cells (ΔMFI, background subtracted); EC50 unit inferred, axis Log10 [Ab] (nM). In general terms: A flow cytometer gives signals particle by particle.
The target in assay [4] is recombinant human αvβ8 integrin (human) (UniProt P06756). The assay is described as follows: ELISA (DELFIA counts) on human αvβ8, Fab titration. (In an ELISA, binding on a coated surface is turned into a signal by an enzyme label.)
Assay [5] deals with T1, human αvβ8 integrin on U251 cells. The assay is described as follows: flow cytometry, Fab binding to fixed U251 cells (MFI APC-A); EC50 unit inferred, axis Log10 [Ab] (nM).
Assay [6] shares this target. The assay is described as follows: flow cytometry, IgG binding to U251 cells (MFI PE-A), left panel ADWA11_IgG_U251 cell binding; EC50 unit inferred, axis Log10 [mAb] nM.
The target in assay [7] is T2, mouse αvβ8 integrin on C8-S cells (mouse, UniProt P43406 31-1044; Q0VBD0 22-767).
T2 construct: Endogenous αvβ8 of C8-S mouse astrocyte cells; also called C8-S (mouse astrocyte); C8-S (mouse avb8)
The assay is described as follows: flow cytometry, IgG binding to C8-S cells (MFI PE-A), right panel ADWA11_IgG_C8-S cell binding; EC50 unit inferred, axis Log10 [mAb] nM. The method, then: 100,000 cells were incubated with a dilution series of the anti-αvβ8 or human IgG1_3 mut Isotype antibody for three to four hours on ice. The cells were spun down for five minutes at 300 g force. The cells were then washed three times with wash buffer (PBS+0.2% BSA) to remove excess unbound antibodies. After thorough washing, cells were incubated with Fab′2 anti-human Fc-PE (Invitrogen) or goat Fab′2 anti-mouse-APC (Jackson Labs) at 1:1000 dilution along with LIVE/DEAD fixable cell stain (Invitrogen) at 1:2000 to distinguish live cells. The whole content was incubated for 30 minutes on ice. After washing, the stained cells were analyzed on BD biosciences Fortessa flow cytometer (gated for live cells) using FlowJo analysis software. The mean fluorescence intensities (MFI) at different antibody concentrations were plotted for various antibodies.
The apparent-affinity of ADWA11 2.4 for U251 (human glioblastoma) or C8-S (mouse astrocyte) cells was also evaluated in a cell-binding assay, according to the methods as generally described herein. Briefly, cells were incubated with a serial dilution of ADWA11 2.4 for 4 hours on ice, followed by detection on bound antibody with an anti-human-PE secondary antibody, and analyzed by flow cytometry.

Assay [8] addresses T3, recombinant human αvβ3 integrin (human, UniProt P06756 31-992; P05106 27-718).
T3 construct: Used in ELISA and immobilised on the Biacore chip; construct not described; also called hαvβ3; AVB3
As to the kind of experiment: Biacore, recombinant human αvβ3 immobilised on the chip; concentration not shown. The method, then:
(§1) To evaluate the specificity of ADWA11 2.4, recombinant human αvβ6 and αvβ3 were immobilized on a Biacore chip and binding of the parental murine and humanized mAb variant of ADWA11 2.4 was determined.
(In SPR one partner is held on a chip, and binding of the other changes the refractive index at the surface.)

Assay [9] deals with T4, recombinant human αvβ6 integrin (human, UniProt P06756 31-992; P18564 22-707).
T4 construct: Used in ELISA and immobilised on the Biacore chip; construct not described; also called hαvβ6; AVB6
As to the kind of experiment: Biacore, recombinant human αvβ6 immobilised on the chip; concentration not shown. Here is the method: as §1

Where a chain is given by its changes, count along the chain named. In names and notes the source's numbering stands.

T2 sequence (P43406 31-1044 limits assumed, chain 1 of 2): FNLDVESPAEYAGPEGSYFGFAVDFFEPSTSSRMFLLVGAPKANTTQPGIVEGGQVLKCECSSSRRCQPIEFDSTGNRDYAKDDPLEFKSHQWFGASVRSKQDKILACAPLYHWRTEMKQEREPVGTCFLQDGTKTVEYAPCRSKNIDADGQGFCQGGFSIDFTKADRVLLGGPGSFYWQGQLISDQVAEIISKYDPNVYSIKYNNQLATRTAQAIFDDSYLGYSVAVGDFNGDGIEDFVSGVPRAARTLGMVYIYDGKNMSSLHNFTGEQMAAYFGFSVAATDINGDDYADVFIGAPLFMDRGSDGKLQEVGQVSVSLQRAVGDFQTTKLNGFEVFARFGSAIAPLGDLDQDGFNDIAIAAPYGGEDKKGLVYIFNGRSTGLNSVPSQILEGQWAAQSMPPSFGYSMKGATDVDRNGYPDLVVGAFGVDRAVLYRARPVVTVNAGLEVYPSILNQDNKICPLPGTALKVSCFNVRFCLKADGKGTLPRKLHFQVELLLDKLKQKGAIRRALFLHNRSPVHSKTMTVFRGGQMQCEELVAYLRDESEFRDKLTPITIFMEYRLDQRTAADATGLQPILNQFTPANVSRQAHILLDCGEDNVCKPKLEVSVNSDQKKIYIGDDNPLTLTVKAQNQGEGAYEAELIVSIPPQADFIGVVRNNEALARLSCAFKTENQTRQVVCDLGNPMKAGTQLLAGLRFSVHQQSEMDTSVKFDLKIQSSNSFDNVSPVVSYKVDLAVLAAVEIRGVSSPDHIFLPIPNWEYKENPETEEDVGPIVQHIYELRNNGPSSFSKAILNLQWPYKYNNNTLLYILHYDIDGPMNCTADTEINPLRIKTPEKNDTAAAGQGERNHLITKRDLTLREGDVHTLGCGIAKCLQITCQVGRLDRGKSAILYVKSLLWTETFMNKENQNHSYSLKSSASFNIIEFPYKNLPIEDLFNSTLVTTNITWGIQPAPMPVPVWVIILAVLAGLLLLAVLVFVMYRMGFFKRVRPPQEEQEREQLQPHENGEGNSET
T2 sequence (Q0VBD0 22-767 limits assumed, chain 2 of 2): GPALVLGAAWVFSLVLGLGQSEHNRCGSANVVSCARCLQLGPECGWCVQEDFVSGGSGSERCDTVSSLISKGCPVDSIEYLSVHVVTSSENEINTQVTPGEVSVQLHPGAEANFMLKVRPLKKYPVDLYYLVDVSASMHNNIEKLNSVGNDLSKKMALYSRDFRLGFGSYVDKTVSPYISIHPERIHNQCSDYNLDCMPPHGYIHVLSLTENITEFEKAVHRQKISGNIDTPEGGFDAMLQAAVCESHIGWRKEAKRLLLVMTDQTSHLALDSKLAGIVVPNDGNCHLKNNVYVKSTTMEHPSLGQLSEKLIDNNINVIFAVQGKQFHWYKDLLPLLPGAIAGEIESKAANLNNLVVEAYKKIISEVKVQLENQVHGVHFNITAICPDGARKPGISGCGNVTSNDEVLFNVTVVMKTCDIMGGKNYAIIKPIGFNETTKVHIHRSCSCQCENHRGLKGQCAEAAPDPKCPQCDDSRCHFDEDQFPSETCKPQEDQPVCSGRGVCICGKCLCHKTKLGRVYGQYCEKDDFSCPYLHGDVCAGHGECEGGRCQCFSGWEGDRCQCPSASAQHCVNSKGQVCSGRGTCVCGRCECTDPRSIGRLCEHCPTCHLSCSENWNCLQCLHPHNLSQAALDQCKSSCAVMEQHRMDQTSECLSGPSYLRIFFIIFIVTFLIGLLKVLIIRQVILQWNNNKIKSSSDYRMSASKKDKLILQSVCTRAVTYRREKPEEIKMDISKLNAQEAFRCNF
T4 sequence (P06756 31-992 limits assumed, chain 1 of 2): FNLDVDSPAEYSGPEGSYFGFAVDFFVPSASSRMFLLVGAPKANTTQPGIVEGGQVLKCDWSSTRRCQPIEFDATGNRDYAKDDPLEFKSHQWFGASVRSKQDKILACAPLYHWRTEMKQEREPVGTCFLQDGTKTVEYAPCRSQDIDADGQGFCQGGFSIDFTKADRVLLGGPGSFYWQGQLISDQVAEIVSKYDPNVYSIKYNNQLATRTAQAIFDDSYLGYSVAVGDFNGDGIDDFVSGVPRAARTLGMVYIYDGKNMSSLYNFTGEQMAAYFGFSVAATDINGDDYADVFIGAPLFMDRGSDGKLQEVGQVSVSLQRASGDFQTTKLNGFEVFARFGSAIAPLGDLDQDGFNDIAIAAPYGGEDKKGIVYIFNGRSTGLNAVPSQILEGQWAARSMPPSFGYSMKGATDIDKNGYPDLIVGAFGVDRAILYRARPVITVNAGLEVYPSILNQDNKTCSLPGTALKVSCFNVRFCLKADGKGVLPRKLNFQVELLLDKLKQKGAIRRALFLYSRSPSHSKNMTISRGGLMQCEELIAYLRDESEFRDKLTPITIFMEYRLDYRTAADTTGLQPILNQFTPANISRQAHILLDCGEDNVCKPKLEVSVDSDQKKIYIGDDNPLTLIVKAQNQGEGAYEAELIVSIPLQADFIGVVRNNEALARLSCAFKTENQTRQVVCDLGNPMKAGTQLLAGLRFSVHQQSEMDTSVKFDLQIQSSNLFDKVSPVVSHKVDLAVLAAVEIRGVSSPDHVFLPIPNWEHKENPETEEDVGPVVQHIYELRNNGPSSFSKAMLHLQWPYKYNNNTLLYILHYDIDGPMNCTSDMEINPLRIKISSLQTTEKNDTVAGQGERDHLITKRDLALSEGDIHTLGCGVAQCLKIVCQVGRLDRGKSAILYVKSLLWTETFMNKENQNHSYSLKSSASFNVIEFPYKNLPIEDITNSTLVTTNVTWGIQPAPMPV
T4 sequence (P18564 22-707 limits assumed, chain 2 of 2): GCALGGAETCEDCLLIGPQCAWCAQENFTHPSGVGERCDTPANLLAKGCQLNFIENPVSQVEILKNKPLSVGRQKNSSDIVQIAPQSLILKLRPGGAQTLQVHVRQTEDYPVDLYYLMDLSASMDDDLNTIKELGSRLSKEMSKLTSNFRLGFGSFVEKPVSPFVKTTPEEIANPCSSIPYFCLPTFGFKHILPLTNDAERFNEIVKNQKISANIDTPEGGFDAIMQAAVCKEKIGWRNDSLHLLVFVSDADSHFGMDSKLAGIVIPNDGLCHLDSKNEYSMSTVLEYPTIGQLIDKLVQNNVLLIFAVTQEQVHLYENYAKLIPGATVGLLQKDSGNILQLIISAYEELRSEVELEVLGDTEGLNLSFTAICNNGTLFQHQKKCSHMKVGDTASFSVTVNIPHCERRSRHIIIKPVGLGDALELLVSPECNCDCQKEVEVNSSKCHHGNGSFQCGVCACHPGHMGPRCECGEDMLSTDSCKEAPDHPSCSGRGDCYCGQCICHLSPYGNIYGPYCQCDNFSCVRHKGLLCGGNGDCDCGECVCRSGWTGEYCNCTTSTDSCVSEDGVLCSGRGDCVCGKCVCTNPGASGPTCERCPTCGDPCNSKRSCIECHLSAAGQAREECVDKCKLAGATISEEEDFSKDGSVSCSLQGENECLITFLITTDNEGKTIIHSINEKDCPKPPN
T3 sequence (P06756 31-992 limits assumed, chain 1 of 2): as the sequence (P06756 31-992 limits assumed, chain 1 of 2) above
T3 sequence (P05106 27-718 limits assumed, chain 2 of 2): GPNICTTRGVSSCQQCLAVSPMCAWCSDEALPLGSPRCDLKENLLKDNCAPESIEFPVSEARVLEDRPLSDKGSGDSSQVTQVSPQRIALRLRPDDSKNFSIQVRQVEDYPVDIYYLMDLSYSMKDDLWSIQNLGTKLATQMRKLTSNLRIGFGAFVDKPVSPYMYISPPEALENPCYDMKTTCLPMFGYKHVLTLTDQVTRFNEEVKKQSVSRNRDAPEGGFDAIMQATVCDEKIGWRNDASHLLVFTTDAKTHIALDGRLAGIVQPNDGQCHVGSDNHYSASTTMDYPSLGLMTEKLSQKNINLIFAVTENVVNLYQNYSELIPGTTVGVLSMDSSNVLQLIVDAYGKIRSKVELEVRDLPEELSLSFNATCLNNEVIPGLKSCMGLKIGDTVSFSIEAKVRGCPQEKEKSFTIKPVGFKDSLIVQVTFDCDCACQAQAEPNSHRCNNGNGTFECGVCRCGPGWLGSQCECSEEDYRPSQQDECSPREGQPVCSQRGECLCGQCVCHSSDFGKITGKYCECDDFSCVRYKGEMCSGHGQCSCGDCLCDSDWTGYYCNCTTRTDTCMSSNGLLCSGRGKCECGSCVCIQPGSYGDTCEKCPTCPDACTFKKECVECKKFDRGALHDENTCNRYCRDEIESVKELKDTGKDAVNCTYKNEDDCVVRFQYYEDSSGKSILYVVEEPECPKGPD
recombinant human αvβ8 integrin (human), sequence (P06756 31-992 limits assumed, form in doubt, chain 1 of 2): as the sequence (P06756 31-992 limits assumed, chain 1 of 2) above
recombinant human αvβ8 integrin (human), sequence (chain, as listed by the source limits assumed, form in doubt, chain 2 of 2): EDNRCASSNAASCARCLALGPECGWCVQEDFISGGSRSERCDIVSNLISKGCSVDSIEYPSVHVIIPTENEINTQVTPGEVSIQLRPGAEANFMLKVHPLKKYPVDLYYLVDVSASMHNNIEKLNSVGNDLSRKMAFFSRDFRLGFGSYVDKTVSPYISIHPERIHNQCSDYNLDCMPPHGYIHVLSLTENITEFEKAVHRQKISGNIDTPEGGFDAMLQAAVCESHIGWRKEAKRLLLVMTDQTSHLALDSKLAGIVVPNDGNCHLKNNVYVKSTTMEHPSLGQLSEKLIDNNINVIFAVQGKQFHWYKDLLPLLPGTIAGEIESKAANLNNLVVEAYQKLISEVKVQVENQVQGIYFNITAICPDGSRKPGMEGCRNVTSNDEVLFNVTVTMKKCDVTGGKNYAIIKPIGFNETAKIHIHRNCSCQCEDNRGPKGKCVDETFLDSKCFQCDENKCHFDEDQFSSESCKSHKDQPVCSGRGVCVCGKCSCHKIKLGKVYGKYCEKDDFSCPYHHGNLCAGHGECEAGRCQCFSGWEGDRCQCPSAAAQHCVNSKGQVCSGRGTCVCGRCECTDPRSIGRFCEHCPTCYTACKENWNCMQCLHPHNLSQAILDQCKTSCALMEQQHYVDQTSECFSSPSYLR

B1: ADWA11 VH05-2/VK01 Fab with F64V in VH (Fab, V domains shown)
VH: EVQLVESGGGLVQPGGSLRLSCAASGFNIKDYYMNWVRQAPGKGLEWVGWIDPDQGNTIYEPKVQGRFTISADTSKNSAYLQMNSLRAEDTAVYYCARRLLMDYWGQGTLVTVSS
VL: DIQMTQSPSSLSASVGDRVTITCRSTKSLLHFNGNTYLFWYQQKPGKAPKRLIYYMSNLASGVPSRFSGSGSGTDFTLTISSLQPEDFATYYCMQSLEYPFTFGQGTKVEIK
Turning to B1, the concentration giving a half-maximal response (EC50) in [1] was 588 pM.

B2: ADWA11 VH05-2/VK01 Fab with L30S in VL (Fab, V domains shown)
VH: B1 VH with V64F
VL: B1 VL with L30S
For B2, in [1], the EC50 was 544 pM.

B3: ADWA11 VH03/VK02 IgG (antibody, V domains shown)
VH: B1 VH with Q55N, E61D, V64F, T74N, S75A
VL: B1 VL with Y41F
In the case of B3, the “IgG Potency TGFB Assay IC50 (pM)” value in assay [2] stood at 223 pM.

B4: ADWA11 VH05-2/VK01 Fab with Q105G in VL (Fab, V domains shown)
VH: B1 VH with V64F
VL: B1 VL with Q105G
Molecule B4 gave a 50% effective concentration (EC50) in [1] of 486 pM.

B5: ADWA11 VH05-2/VK01 Fab with F101L in VL (Fab, V domains shown)
VH: B1 VH with V64F
VL: B1 VL with F101L
B5 yielded a concentration giving a half-maximal response (EC50) in assay [1] of 1560 pM.

B6: ADWA11 VH02/VK01 IgG (antibody, V domains shown)
VH: B1 VH with G49A, Q55N, E61D, V64F, T74N, S75A, A79L
VL: B1 VL
As to B6, the “IgG Potency TGFB Assay IC50 (pM)” value in assay [2] was determined as 1760 pM.

B7: ADWA11 VH05-2/VK01 Fab with M56A in VL (Fab, V domains shown)
VH: B1 VH with V64F
VL: B1 VL with M56A
Molecule B7 had a half-maximal effective concentration (EC50) in assay [3] of 205 pM.

B8: ADWA11 VH03/VK01 IgG (antibody, V domains shown)
VH: B1 VH with Q55N, E61D, V64F, T74N, S75A
VL: B1 VL
For B8, the “IgG Potency TGFB Assay IC50 (pM)” value in [2] stood at 138 pM.

B9: ADWA11 VH05/VK01 Fab with N55Q in VH (Fab, V domains shown)
VH: B1 VH with E61D, V64F
VL: B1 VL
Consider B9, for which the 50% effective concentration (EC50 (read off the curve)) in [4] amounted to 1000 pM.

B10: ADWA11 VH05-2/VK01 Fab (parental) (Fab, V domains shown)
VH: B1 VH with V64F
VL: B1 VL
Take B10: the figures for the concentration for a half-maximal effect (EC50) in assay [5], in [3] and in assay [1] were 198 pM, 224 pM and 613 pM, respectively.

B11: ADWA11 VH05-2/VK01 Fab with L97Y in VL (Fab, V domains shown)
VH: B1 VH with V64F
VL: B1 VL with L97Y
Regarding B11, in assay [1], the concentration giving a half-maximal response (EC50) came to 544 pM.

B12: ADWA11 VH05-2/VK01(2.1) antibody (antibody, V domains shown)
VH: B1 VH with V64F
VL: B1 VL with L30S, M94Q, Q105G
notes: also called ADWA11 2.1
Take B12: the concentration for a half-maximal effect (EC50) came out at 100 pM in assay [6] and 106 pM in [7].

B13: ADWA11 VH01/VK01 IgG (antibody, V domains shown)
VH: B1 VH with G49A, Q55N, E61D, V64F, A72R, T74N, S75A, A79L
VL: B1 VL
With B13, the “IgG Potency TGFB Assay IC50 (pM)” value in [2] was 8470 pM.

B14: ADWA11 VH05-2/VK01 Fab with N58S in VL (Fab, V domains shown)
VH: B1 VH with V64F
VL: B1 VL with N58S
Take B14: in assay [3], the EC50 is 229 pM.

B15: ADWA11 VH05-2/VK01 IgG (antibody, V domains shown)
VH: B1 VH with V64F
VL: B1 VL
notes: also called ADWA11 5-2_1; VH05/VK01-N55Q-D61E
On to B15, for which the binding result in assay [8] and in assay [9] was “no binding” in each case. In addition, the EC50 in assay [6] stood at 71.1 pM; in assay [7], 59.1 pM.

B16: ADWA11 VH05-2/VK01 Fab with M94Q in VL (Fab, V domains shown)
VH: B1 VH with V64F
VL: B1 VL with M94Q
In assay [1], B16 came in with a half-maximal effective concentration (EC50) of 641 pM.

B17: ADWA11 VH05-1/VK01 IgG (antibody, V domains shown)
VH: B1 VH with Q55N, V64F
VL: B1 VL
notes: VH05 with D61E; also called ADWA11 5-1_1; VH05/VK01-D61E
With B17, the binding result in assay [8] and in assay [9] was “no binding” in each case.

In general, EC50 refers to the concentration that produces a half-maximal response. The low end stands for higher potency in that assay, the high end for lower potency in that assay. In general, EC50 (read off the curve) refers to the concentration needed to bring the measured effect to its halfway point.

These data come from patent publication US20200079855A1 (Pfizer, published 2020).
